Source: the RNAGym collection of RNA variant scans (doi:10.7554/elife.80360)

B1: CPEB3 Ribozyme (parent)
chain: GGGGGCCACAGCAGAAGCGUUCACGUCGCGGCCCCUGUCAGAUUCUGGUGAAUCUGCGAAUUCUGCUGU

Variants of: B1
Assay: self-cleavage, relative activity (ratio to wild type); higher = more cleavage; co-transcriptional
With C6G G41C the self-cleavage was 0.118. With C6U U44G the self-cleavage was 1.01. With C6G U55A the self-cleavage was 0.26. C6G U55C showed a self-cleavage of 0.284. C6G U55G showed a self-cleavage of 0.144. For C6U A23G, the self-cleavage was 1.03. Variant C6G A60C has a self-cleavage of 0.0823. For C6U U67C, the self-cleavage was 1.02. C6U U67A gave a self-cleavage of 0.995. C6U G19U gave a self-cleavage of 0.298. C6G G47U gave a self-cleavage of 0.463. In the case of C7A C18G, the self-cleavage is reported as 0.159. Variant C6U C32A has a self-cleavage of 0.177. In the case of C6G C29A, the self-cleavage is reported as 0.0897. C6U G31A gave a self-cleavage of 1.02. C7A C9A gave a self-cleavage of 0.97. C6U C24G gave a self-cleavage of 0.345. C6A G48A showed a self-cleavage of 0.712. Work on C6A G48U yielded a self-cleavage of 0.776. Variant C7A A15U has a self-cleavage of 0.135. C6A U26C gave a self-cleavage of 0.333. Variant C6G C12A has a self-cleavage of 0.102. For C6G C12U, the self-cleavage was 0.271. C6G C12G gave a self-cleavage of 0.253. C6U G65A showed a self-cleavage of 0.849. In the case of C6U A51U, the self-cleavage is reported as 0.986. Variant C6U A51G has a self-cleavage of 1.01. C6U A42G gave a self-cleavage of 0.951. C7A A23C gave a self-cleavage of 0.407. For C6A U43C, the self-cleavage was 0.412. Variant C6A U43A has a self-cleavage of 0.294. For C7A C12U, the self-cleavage was 0.592. Work on C6G A52U yielded a self-cleavage of 0.254. C6G U36C showed a self-cleavage of 0.184. With C6G A13C the self-cleavage was 0.163. In the case of C6G A13U, the self-cleavage is reported as 0.123. For C6G A10C, the self-cleavage was 0.284. C6G G31C gave a self-cleavage of 0.93. C6U U21A showed a self-cleavage of 0.997. C6G U38G showed a self-cleavage of 0.0812. Variant C6G G11A has a self-cleavage of 0.177. C6G G11U showed a self-cleavage of 0.185. C7A A42G gave a self-cleavage of 0.471. With C7A A42U the self-cleavage was 0.349. C7A A42C gave a self-cleavage of 0.322. For C6U U69C, the self-cleavage was 1.06. For C6U G50U, the self-cleavage was 0.979. Variant C6U G50C has a self-cleavage of 1.02. With C6U C54U the self-cleavage was 1.03. C7A A59C gave a self-cleavage of 0.239. In the case of C6U G11A, the self-cleavage is reported as 0.861. C6U A13G gave a self-cleavage of 0.987. C6U A13U showed a self-cleavage of 0.867. In the case of C6G G28C, the self-cleavage is reported as 0.0369. With C6G G28A the self-cleavage was 0.0625. C6U C27U showed a self-cleavage of 0.256. For C6U A15U, the self-cleavage was 0.698. C6U G56A showed a self-cleavage of 0.962. With C6G G30U the self-cleavage was 0.045. Variant C6A G41U has a self-cleavage of 0.225. Variant C6G C34A has a self-cleavage of 0.0671. C6U G58U gave a self-cleavage of 1.01. Variant C6A U67G has a self-cleavage of 0.835. Variant C6G U53G has a self-cleavage of 0.136. C6U U62C showed a self-cleavage of 0.811. C6G G48A showed a self-cleavage of 0.493. In the case of C6U G14C, the self-cleavage is reported as 0.458. With C6U G14U the self-cleavage was 0.616. With C7A A8C the self-cleavage was 0.769. C6U C33A showed a self-cleavage of 0.257. Work on C6U C33G yielded a self-cleavage of 0.145. C6U A52G gave a self-cleavage of 0.997. For C7A A40G, the self-cleavage was 0.416. Work on C6G U20G yielded a self-cleavage of 0.0342. In the case of C6G U20C, the self-cleavage is reported as 0.0949. With C6G C9U the self-cleavage was 0.489. Variant C6G C57G has a self-cleavage of 0.0373. Work on C6G U26C yielded a self-cleavage of 0.249. Work on C6G G25A yielded a self-cleavage of 0.0449. Work on C6A G58C yielded a self-cleavage of 0.567. For C6A U36G, the self-cleavage was 0.138. For C6A U36A, the self-cleavage was 0.128. Work on C6G U43A yielded a self-cleavage of 0.172. C6G U43G showed a self-cleavage of 0.126. Variant C6G A42G has a self-cleavage of 0.324. Variant C6U C63A has a self-cleavage of 0.806. Variant C7A A60G has a self-cleavage of 0.272. C6U C39A showed a self-cleavage of 0.852. Work on C6G G50C yielded a self-cleavage of 0.205. C6U U49A gave a self-cleavage of 1. Variant C6U U49G has a self-cleavage of 0.956. C6G A23G gave a self-cleavage of 0.164. In the case of C6G A23U, the self-cleavage is reported as 0.526. Variant C6U U43G has a self-cleavage of 0.815. Variant C6U U43C has a self-cleavage of 0.902. In the case of C6A U20G, the self-cleavage is reported as 0.161. C6G C35G showed a self-cleavage of 0.0784. For C6A U64C, the self-cleavage was 0.304. With C7A A10U the self-cleavage was 0.912. Variant C6G C66G has a self-cleavage of 0.311. C6A U49A showed a self-cleavage of 0.641. In the case of C6G A59U, the self-cleavage is reported as 0.152. For C6U U26G, the self-cleavage was 0.91. With C6A U61A the self-cleavage was 0.217. Work on C6U G48U yielded a self-cleavage of 1. Work on C7A A13C yielded a self-cleavage of 0.277. C6U A40G gave a self-cleavage of 0.999. C6G A8G gave a self-cleavage of 0.358. For C6U C34G, the self-cleavage was 0.188. C6U G41U showed a self-cleavage of 0.817. C6G G14U showed a self-cleavage of 0.121. C6G C45G gave a self-cleavage of 0.376. With C6U C35U the self-cleavage was 0.78. Variant C6U C35G has a self-cleavage of 0.2. With C6A U38A the self-cleavage was 0.3. Work on C6G G65C yielded a self-cleavage of 0.158. C6U G17U gave a self-cleavage of 0.209. C6G U64G showed a self-cleavage of 0.276. C6G U64C showed a self-cleavage of 0.166. C6G U62C gave a self-cleavage of 0.0999. In the case of C6G U21A, the self-cleavage is reported as 0.246. C6G A51C showed a self-cleavage of 0.154. Work on C6G A51G yielded a self-cleavage of 0.356. Variant C6U C7U has a self-cleavage of 0.86. Work on C6G A16G yielded a self-cleavage of 0.127. With C7A A16G the self-cleavage was 0.383. C7A A16C gave a self-cleavage of 0.0791. C6G C39A showed a self-cleavage of 0.173. With C6G C39U the self-cleavage was 0.168. With C6G G37U the self-cleavage was 0.0713. For C7A A52G, the self-cleavage was 0.515. Work on C6G A15G yielded a self-cleavage of 0.212. Variant C6G A15U has a self-cleavage of 0.128. For C6G C7A, the self-cleavage was 0.0493. C6G C7G gave a self-cleavage of 0.0901. Variant C6A U62G has a self-cleavage of 0.211. C6A U62A showed a self-cleavage of 0.175. C6G U61A gave a self-cleavage of 0.128. Work on C6G U61G yielded a self-cleavage of 0.209. Work on C6G U46A yielded a self-cleavage of 0.377. In the case of C6G U46G, the self-cleavage is reported as 0.386. C6G U46C showed a self-cleavage of 0.41. C6G U67A gave a self-cleavage of 0.325. Variant C6G C22U has a self-cleavage of 0.106. For C6G C22A, the self-cleavage was 0.0965. In the case of C6G C22G, the self-cleavage is reported as 0.0649. In the case of C6A G50A, the self-cleavage is reported as 0.708. In the case of C6A U55G, the self-cleavage is reported as 0.2. With C6A U55A the self-cleavage was 0.396. C6U C29U showed a self-cleavage of 0.405. Variant C6U C29A has a self-cleavage of 0.493. For C6U U20A, the self-cleavage was 0.115. C6U U20C gave a self-cleavage of 0.144. Variant C6U U36C has a self-cleavage of 0.969. C6U U38A gave a self-cleavage of 0.916. C6U C18U gave a self-cleavage of 0.727. For C6U C18G, the self-cleavage was 0.0786. Variant C6U G25A has a self-cleavage of 0.141. With C6U G25U the self-cleavage was 0.18. C6A G56A gave a self-cleavage of 0.423. C6A G56U showed a self-cleavage of 0.44. C6U A10G gave a self-cleavage of 0.908. C6U G28U gave a self-cleavage of 0.168. With C6U C22A the self-cleavage was 0.172. In the case of C6U C22U, the self-cleavage is reported as 0.198. C6G C54A showed a self-cleavage of 0.162. In the case of C7A A51U, the self-cleavage is reported as 0.402.
